{
  "source": "patent US20160002338A1",
  "about": "(Hoffmann-La Roche, published 2016)",
  "binders": {"B1": {"name": "anti-HER3/HER4 antibody M-05-74 (antibody, V domains shown)", "VH": "QVQLQQSGAELAKPGASVKMSCKTSGYTLTDYWIHWVKQRPGQGLEWIGYINPYTGYTESNQKFKDKATLTADKSSNTAYIQLSSLTSEDSAVYYCARPYYYGDYWGQGTTLTVSS", "VL": "QIVLTQSPAIMSASPGERVTITCSASSSVSYMHWFQQKPGTSPKLLIYSTSNLASGVPARFSGSGSGTSYSLTISRMEAEDAATYYCQQRSSYPFTFGSGTKLEIK", "notes": "murine monoclonal antibody from hybridoma (supernatant or purified); also called M-074; M-5-74"}},
  "key": {"[1]": {"biological_target": "T1, TtSlyD-FKBP-Her3", "T1 construct": "15 kDa; N-terminal Met may be present or not; also called Thermus thermophilus SlyD FKBP-Her3; thermo SlyD-Her3", "T1 chain": "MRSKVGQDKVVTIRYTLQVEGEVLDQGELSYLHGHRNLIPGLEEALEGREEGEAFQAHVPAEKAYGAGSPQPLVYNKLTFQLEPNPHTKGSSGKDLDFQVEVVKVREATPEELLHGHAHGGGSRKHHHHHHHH", "assay": "SPR Biacore 4000, antibody captured, antigen 150 nM, 25 C", "protocol": "(§1) In all assay the test antibodies were captured. The system was under the control of the software version V1.1. The instrument buffer was HBS-EP (10 mM HEPES (pH 7.4), 150 mM NaCl, 1 mM EDTA, 0.05% (w/v) P20). The system operated at 25° C. 30 μg/ml Rabbit polyclonal antibody (RAM IgG, (Rabbit anti Mouse IgG with Fc gamma specificity) GE Healthcare) in 10 mM sodium acetate buffer (pH 4.5) was immobilized using EDC/NHS chemistry according to the manufacturer's instructions on the spots 1, 2, 4 and 5 in the flow cells 1, 2, 3 and 4. The sensor was saturated using 1M ethanolamine. In each flow cell, referenced signals were calculated using spots 1-2 and spots 5-4, spot 3 served as a blanc control. […] The antibody capture level (CL) in response units was monitored. […] Thereafter, the antibody-antigen complex dissociation signal was recorded for 5 min. […] The recorded signal shortly before the end of the injection of the antigen was denoted as binding late (BL) in response units. The recorded signal shortly before the end of the recording of the dissociation is denoted as stability late (SL) in response units. The dissociation rate constants were determined calculated The antibody-antigen complex stability in minutes was calculated with the following formula: ln(2)/60*kd. The Molar Ratio was calculated with the formula: MW (antibody)/MW(antigen)*BL (antigen)/CL (antibody). […]"}, "[2]": {"biological_target": "T2, human recombinant HER3 ECD (human, UniProt P21860 20-643)", "T2 construct": "68 kDa; also called human-Her3-ECD; full length Her3 ECD", "T2 sequence (P21860 20-643)": "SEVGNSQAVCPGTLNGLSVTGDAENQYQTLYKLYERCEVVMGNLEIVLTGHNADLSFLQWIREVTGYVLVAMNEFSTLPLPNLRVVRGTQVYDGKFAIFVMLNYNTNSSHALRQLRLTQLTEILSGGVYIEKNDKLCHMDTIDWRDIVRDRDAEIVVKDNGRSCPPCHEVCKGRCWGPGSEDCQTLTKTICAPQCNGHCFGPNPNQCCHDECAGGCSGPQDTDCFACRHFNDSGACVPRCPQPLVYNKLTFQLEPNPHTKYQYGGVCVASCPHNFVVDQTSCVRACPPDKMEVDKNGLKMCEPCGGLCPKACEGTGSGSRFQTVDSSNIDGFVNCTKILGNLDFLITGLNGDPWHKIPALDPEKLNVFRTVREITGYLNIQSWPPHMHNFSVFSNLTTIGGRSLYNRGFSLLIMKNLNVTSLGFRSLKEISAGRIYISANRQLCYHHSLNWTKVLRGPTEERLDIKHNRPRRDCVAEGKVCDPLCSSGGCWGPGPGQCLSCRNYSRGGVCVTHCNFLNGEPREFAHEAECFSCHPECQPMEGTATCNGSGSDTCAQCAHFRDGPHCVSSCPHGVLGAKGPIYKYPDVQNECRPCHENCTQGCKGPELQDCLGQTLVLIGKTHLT", "assay": "SPR Biacore 4000, antibody captured, antigen 150 nM, 25 C", "protocol": "as §1"}, "[3]": {"biological_target": "T3, HER4 ECD binding epitope peptide VYNPTTFQLE (human)", "T3 construct": "the spotted peptides were longer", "T3 peptide": "VYNPTTFQLE", "assay": "CelluSpots peptide array, 1 µg/mL antibody"}, "[4]": {"biological_target": "T4, HER3 ECD binding epitope peptide VYNKLTFQLEP (human)", "T4 construct": "the spotted peptides were longer", "T4 peptide": "VYNKLTFQLEP", "assay": "CelluSpots peptide array, 1 µg/mL antibody"}, "[5]": {"biological_target": "T5, HER3 ECD-HRG complex (human, UniProt P21860 20-643)", "T5 construct": "also called Heregulin/Her-3 ECD", "T5 sequence (P21860 20-643 limits assumed, one chain of several)": "as the sequence (P21860 20-643) above", "assay": "SPR Biacore 3000, 37 C"}, "[6]": {"biological_target": "T6, HER4 ECD-HRG complex (human, UniProt Q15303 26-651)", "T6 construct": "HER4 ECD preincubated with a 5-fold molar excess of Heregulin; also called HER-4-ECD-RG", "T6 sequence 1": "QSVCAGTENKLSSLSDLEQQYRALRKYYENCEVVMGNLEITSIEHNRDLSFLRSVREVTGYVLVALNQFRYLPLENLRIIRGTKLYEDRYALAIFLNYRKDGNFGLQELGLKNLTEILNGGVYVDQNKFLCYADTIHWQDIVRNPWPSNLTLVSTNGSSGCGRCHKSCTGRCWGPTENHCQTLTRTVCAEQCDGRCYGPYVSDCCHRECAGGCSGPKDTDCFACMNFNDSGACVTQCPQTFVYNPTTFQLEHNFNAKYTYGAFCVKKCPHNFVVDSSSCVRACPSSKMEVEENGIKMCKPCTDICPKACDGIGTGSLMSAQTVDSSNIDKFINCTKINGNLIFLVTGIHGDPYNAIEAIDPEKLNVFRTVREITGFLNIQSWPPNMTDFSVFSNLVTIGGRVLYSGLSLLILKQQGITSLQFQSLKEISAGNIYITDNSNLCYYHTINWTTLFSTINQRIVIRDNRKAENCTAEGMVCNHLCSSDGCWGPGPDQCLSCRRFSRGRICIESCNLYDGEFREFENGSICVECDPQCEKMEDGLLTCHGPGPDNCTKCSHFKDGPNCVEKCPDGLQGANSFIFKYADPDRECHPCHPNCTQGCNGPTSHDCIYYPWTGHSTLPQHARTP", "T6 sequence 2": "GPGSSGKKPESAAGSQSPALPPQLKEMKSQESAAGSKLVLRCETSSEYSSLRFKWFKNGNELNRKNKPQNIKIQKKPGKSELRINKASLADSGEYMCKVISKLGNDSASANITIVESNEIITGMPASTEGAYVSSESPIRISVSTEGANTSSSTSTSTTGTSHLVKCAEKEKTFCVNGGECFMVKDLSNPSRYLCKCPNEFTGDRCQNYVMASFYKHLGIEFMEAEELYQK", "assay": "SPR Biacore 3000, 37 C"}, "[7]": {"biological_target": "T2, human recombinant HER3 ECD", "assay": "SPR Biacore 3000, 37 C"}, "[8]": {"biological_target": "T7, human recombinant HER2 ECD (human, UniProt P04626 23-652)", "T7 construct": "69.6 kDa", "assay": "SPR Biacore T100, antibody captured, 25 C", "protocol": "A CM5 series sensor was mounted into the system and was normalized in HBS-ET buffer (10 mM HEPES pH 7.4, 150 mM NaCl, 3 mM EDTA, 0.005% w/v Tween 20) according to the manufacturer's instructions. The sample buffer was the system buffer supplemented with 1 mg/ml CMD (Carboxymethyldextran, Sigma #86524). The system operated at 25° C. 6500 RU RAM-Fcγ (relative units of Fcγ-fragment RamIgG, GE Healthcare) were immobilized according to the manufacturer's instructions using EDC/NHS chemistry on all four flow cells. The sensor was deactivated using 1M ethanolamine.\nAnalytes in solution were injected at different concentration steps of 0 nM, 1.1 nM, 3.7 nM, 11.1 nM, 33.1 nM and 90 nM for 3.5 min. The dissociation was monitored for 15 min. Where possible, kinetic signatures were evaluated according to a Langmuir fit."}},
  "data": [
    {"binder": "B1", "values": [
      {"measurement": "Molar Ratio MR", "setting": "[1]", "result": 1.1},
      {"measurement": "Molar Ratio MR", "setting": "[2]", "result": 0.5},
      {"measurement": "binding result", "setting": "[3]", "result": "binds"},
      {"measurement": "binding result", "setting": "[4]", "result": "binds"},
      {"measurement": "Molar Ratio MR", "setting": "[5]", "result": 0.7},
      {"measurement": "Molar Ratio MR", "setting": "[6]", "result": 0.9},
      {"measurement": "Molar Ratio MR", "setting": "[7]", "result": 0.6},
      {"measurement": "binding result", "setting": "[8]", "result": "no binding (tested: 90 nM)"}
    ]}
  ]
}
